Results reported in the supplement of paper PMC10567573.
± gives the standard deviation.

Assay: protein stability index of a GFP-peptide fusion (GPS, HEK-293T) (PSI 1-6); higher = more stable
Conditions: c terminus: a fixed tail appended
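Further: 24-mer peptide tiles fused after GFP, lentivirally expressed, FACS-sorted into six equal bins by GFP/DsRed ratio, decoded by Illumina sequencing, PSI is the read-weighted mean bin number.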

Sequence | protein stability index (treatment: DMSO) | protein stability index (treatment: MLN4924 1 uM, 8 h)
IEKWVILEKDFSIYGGELGPMMKL [ACSBG2] | 2.56 ± 0.71 | 2.38 ± 0.44
PKNDNVVIPECAHGGLYKPVQCHP [SMOC2] | 3.44 ± 0.15 | 3.6 ± 0.36
RAVLGANDPEKNFLTTAIRPHGIF [NSDHL] | 2.73 ± 0.47 | 3.33 ± 0.039
DAPPVELQLLHECSPSQMDLLCAQ [FANCE] | 4.31 ± 0.054 | 4.63 ± 0.25
DAWKRPDALPGQSKRLAVPCKLEK [TLE6] | 4.2 ± 0.17 | 4.28 ± 0.2
REYLSEEVQAVHKNTTYDLIANIV [USP39] | 2.23 ± 0.23 | 2.32 ± 0.11
KSWHDMQTTTAYKKTHETLSHAGQ [TPD52L1] | 4.01 ± 0.15 | 3.96 ± 0.18
KASSRKPFGILSPNVLCSMSGKSP [FBXO34] | 2.83 ± 0.095 | 3 ± 0.27
DALISVSYTIITPLFNPMIYSLRN [OR10K2] | 4.18 ± 0.26 | 3.35 ± 0.75
FEGDMGAAGGDGELGSPLRRSISS [PSD2] | 4.81 ± 0.2 | 4.94 ± 0.13
GSLGFEPVYVSCIAQDTCTTTDHS [SPAG8] | 3.37 ± 0.35 | 3.64 ± 0.17
KEEDHYQRARKEREKEDYLHLKRQ [RHOBTB2] | 4.85 ± 0.15 | 5.01 ± 0.19
NEYAYLPLHVHEEEGILVAVGQDC [DCAF4] | 3.75 ± 0.18 | 3.91 ± 0.12
REEEDRALPENEFKKQIWLLFEYP [KCNA4] | 2.7 ± 0.19 | 2.94 ± 0.46
REENEKLRLENSSLFSQALKDEEA [CCDC89] | 5.41 ± 0.46 | 5.41 ± 0.37
AYEYEREGLYEQAFQLLRRFVQAE [TRADD] | 2.27 ± 0.31 | 2.48 ± 0.26
NRNLQKFSLFGDISVLQQQGSLSN [FBXO33] | 2.83 ± 0.28 | 2.86 ± 0.32
ANNDHTVLSLACAGGHLAVVELLL [ANKRD17] | 2.41 ± 0.25 | 2.42 ± 0.24
HPFLYLSLEISPQNVDVNVHPTKH [MLH1] | – | 2.37 ± 0.34
WKNFDERKEMATILSKMPKPKPPP [CCNC] | 3.63 ± 0.28 | 3.64 ± 0.31
TQSVSECITEDGRTVAVGDIVWGK [PWWP2B] | 4.09 ± 0.22 | 4.25 ± 0.21
LTKHEWTEALGCDPPLSQDERTHR [ZNF8] | 4.6 ± 0.2 | 4.72 ± 0.17
WDPNTGFDLNNLDPELKNLFDMCG [WASL] | 3.05 ± 0.36 | 3.1 ± 0.37

Sequence | protein stability index (treatment: DMSO) | protein stability index (treatment: MLN4924 1 uM, 8 h)
APVLVAAPHSTFFDPIVLLPCDLP [LPCAT4] | 2.25 ± 0.27 | 2.47 ± 0.32
LIFLSNFPFSLLGLLALAIGLWGL [TSPAN10] | 3.21 ± 0.27 | 2.93 ± 0.25
WLSYRLLKASEPGLFAVGEHTGEV [PCDHGA10] | 2.35 ± 0.11 | 2.31 ± 0.16
DVVEDYKKRYEEEINKRTAAENEF [KRT71] | 5.13 ± 0.093 | 5.37 ± 0.3
QGLLHEAGSTDDRIVVPQRGRSTR [SPNS1] | 5.13 ± 0.32 | 5.14 ± 0.15
LLCLLHFSIVSVAAHLALLLLCGT [RTN2] | 3.19 ± 0.65 | 3.33 ± 0.3
SSENFDDYMKEVGVGFATRKVAGM [FABP4] | 3.27 ± 0.1 | 3.55 ± 0.3
ITNQVVAQVDGAAMFAADPKKPIG [RAD51] | 4.58 ± 0.11 | 4.51 ± 0.2
EEAEELAKEMSVPFYTSRIDEVLL [GFOD1] | 3.83 ± 0.24 | 4.11 ± 0.33
IREKSRLFDTKHDVYSFAIVIWGV [RIPK4] | 3.27 ± 0.68 | 2.9 ± 0.83
CLLVLRLFLGIHVFLVSCALPDSV [AUP1] | 3.22 ± 0.2 | 3.09 ± 0.05
VQLSDEMFVFQDGRWVNENCRLQS [CBY2] | 3.06 ± 0.26 | 3.03 ± 0.34
SPQSGSILTEETEVKGTLEGDVCG [PBXIP1] | 5.59 ± 0.11 | 5.33 ± 0.35
GSYSSTMNGHQNGLDSPPLYPSAP [ESRRG] | 4.07 ± 0.23 | 4.3 ± 0.14
HCGVLEFVADEGICYLPHWMMQNL [UFD1] | 2.57 ± 0.59 | 2.13 ± 0.39
AGSSLPTSSKVNATVPSNMMSVNG [ACBD3] | 4.13 ± 0.19 | 4.16 ± 0.14
RQTSTKAVQHFYNIKLEGKVPMHK [ESRRG] | 3.32 ± 0.11 | 3.5 ± 0.26
KSNSYPHQLYTSSSHHSHSYIGLP [KMT2E] | 3.03 ± 0.17 | 3.24 ± 0.26
VFLASKVEEFGVVSNTRLIAAATS [CCNC] | 2.46 ± 0.68 | 2.24 ± 0.35
QLQDQDQKLLEQTQIIGEQNARLA [FBXO28] | 4.75 ± 0.18 | 4.74 ± 0.15
SSGAGSSPPAAPCPPPPGPAAAPE [ZBED3] | 5.36 ± 0.24 | 5.35 ± 0.085
KCMRNGPNALIASLALGDLIYVVI [EDNRA] | 3.49 ± 0.4 | 2.79 ± 0.79
